Sequences and labels used below:
B1: G5 (VHH)
VHH: EVQLVESGGGVVQPGGSLTLSCAASGFAFRNYAMSWVRQAPGKGPEWVSQINGRGGYTSYADSVKGRFTISRDNTKNTLYLQMNNLKPDDTAVYYCAKDPTQLRWIPVPNYILGSTKGQGTQVTVSS
B2: G13 (VHH)
VHH: DVQLVESGGGVVQAGGSLRLSCAASGRTFSDYAMGWFRQAPGKEREFVAGVSWSGVDTYYADSVKGRFTISRDNAKNTLYVQMNSLKPEDTAVYYCAAQRYYHGHAKNMRYDYWGQGTQVTVSS
notes: also called G13(C3)
B3: G32 (VHH)
VHH: QVQLVESGGGLVRAGDSLRLSCVVSGRPISSYAMAWFRQAPGKDREVVAGISANGDRTHYADSIKGRFTVSRDNAKNSMTLQMNKLKPEDTAVYYCAADSLTEGGYGLTGDFDYWGQGTQVTVSS
B4: G17 (VHH)
VHH: EVQLVESGGGLVQAGGSLRLSCAASGVTISYWVMGWFRQAPGKEREFVARISWGGERTYYADSVKGRFAISRDNAKNTVYLQMNSLNAEDTAVYYCAADRTGWGHSNSRSEYDYWGQGTQVTVSS
B5: G2 (VHH)
VHH: EVQLVESGGDLVQAGGSLRLSCSASGNIFKINDMGWYRQAPGKQRELVARISSSGNTNYADSVKGRFTISRDNGKNTVYLQMNRVKPEDTAVYYCNADVQVSRNYEYEYWGQGTQVTVSS
B6: G85 (VHH)
VHH: HVQLVESGGGLVQPGGSLRLSCAASGFTFSTYAMGWVRQAPGKGPEWVATIYSKGDTTHYANSAKGRFTISRDNARNTLYLQMNSLKPEDTAVYYCAKGISDSYLRVESNYRGQGTQVTVSS
B7: G9 (VHH)
VHH: DVQLVESGGGLVQPGGSLRLSCAASGLTLDNYDMAWFRQAPGKEREFVTAINYVGGRTYADSVRGRFTISRDDTKNTVYLQMNSLKPEDTAVYYCAAGLQYGITSLRTRNYNYWGQGTQVTVSS
B8: G47 (VHH)
VHH: QVQLVESGGGLVQAGGSLRLSCAASERIFSNYAMGWFRQAPGKEREFVASIRGSGSQTSYADSVKGRFTISRDGAKDTVDLQMNSLKPEDTAVYYCSAKKYCGSTYNRAEGYDYWGQGTQVTVSS
B9: G46 (VHH)
VHH: DVQLVESGGGLVQAGGSLRLSCAASGRTFSRYHMGWFRQAPGKERDVVAAISWSGDSTYYADSVKGRFTISKDNAKNTVYLQMDNLKPEDTAVYYCNVRGGVLRPYDYWGQGTQVTVSS
B10: G36 (VHH)
VHH: QMGRNSAQVQLVESGGSLRLSCAASGFALSNSYMKWVRQAPGKGPEWVSTIYADGSTYYTDSVKGRFITSRDNSKNTMYLQMSDLKPEDTAVYYCANPSAKGQGTQVTVSS
B11: G38 (VHH)
VHH: EVQLVESGGGLVQAGGSLRLSCVASGHTDCISGMGWYRQAPGKERELVAVLIGGGNTYYGDSVKGRFTISKDKAKNTLYLQMKTLKPEDMAVYYCTADDHGSECPNKEMSSTATYWGQGTQVTVSS
B12: G82 (VHH)
VHH: HVQLVESGGGLVQAGGSLRLSCAASGKIFSLSTMGWYRQAPGKQRELVAALTSGGSTNYADSVKGRFTISRDNAKYTTYLQMNSLKPEDTAVYYCNVRYYSGYDGYESNSWGQGTQVTVSS
B13: G81 (VHH)
VHH: EVQLVESGGELVQAGGSLRLSCAASGRTDSVTRMAWFRQAPGKEREFVAAITWSSGYTYYPDSVKGRFTISRDNAKNTMYLQMNSLKAEDTAVYICAAAVGVISEYNSWGQGTQVTVSS
B14: G34 (VHH)
VHH: QVQLVESGGGLVQAGDSLRLSCAASGRTFSRYAMAWFRQAPGKEREFVAGISWTGRFTYYADSVKGRFTISRDDAKNTVYLQMNNLKPEDTGLYFCKVGDPYGVGLREYEWWGPGTQVTVSS
B15: G29 (VHH)
VHH: QVQLVESGGGLVQAGDSLLLSCGTSGRTFSSNTMGWFRQAPGKGREFVATITASGRGTNYGDSVRGRFTISRDNDKNTVYLQMNNLKPDDTGVYTCAASDSPYGSRWIEAYGYWGQGTQVTVSS
B16: G95 (VHH)
VHH: HVQLVESGGGLVQAGGSLRLSCAASGRTFSSYAMAWFRQAVGKEREFVAAVSRSGTNLYYADSVKGRFTISRDTAKNTMYLQMNSLKPEDTALYYCAAGEALRWGIGQQPRSEFFDYWGQGTQVTVSS
notes: also called G95(C2)
B17: G33 (VHH)
VHH: QMGRNSAEVQLVESGGSLRLSCSVSGGPFTSNGMGWYRQAPGKEREWVAAITNSGSANYADSVKGRFTVSMVNANNTMYLQMNNLKPDDTAVYYCNVAGWPHGYWGQGTQVTVSS
B18: G83 (VHH)
VHH: QVQLVESGGGLVQAGGSLRLSCAASRRTFSIYNMGWFRQAPGKEREFVATITRYGDRTYTADSVKGRFTISSDQAKNTVYLQMNSLNPHDTAVYYCAADSAYSGPDFKHYDYWGQGTQVTVSS
B19: G76 (VHH)
VHH: QVQLVESGGGLVQPGGSLRLSCVVSGFPFSEYAMSWVRQTPEKGREWVSGIYTDGSETLYENSVKGRFTISRDNTKNTLYLQMNNLKPEDTARYYCKLGDPYGVGLRDYEYLGHGTQVTVSS
B20: G6 (VHH)
VHH: QVQLVESGGGLVQAGGSLRLSCAASGRTISSYAMGWFRQAPGKERELVARITSSAGSTYYADSVKGRFTISRDNAKNTMYLQMNSLKPEDTAVYYCAVEIVRAQYDYWGQGTQVTVSS
B21: G22 (VHH)
VHH: QVQLVESGGGSVQAGGSLRLSCAASGRTFSSYSMAWFRQAPGKEREFVAVMNCRYGDTDYPDSVKGRFTMSRDNAKNTLYLQMNSLKPEDTAVYYCAAKLIAYCGSGYYYRRNDYGYWGQGTQVTVSS
B22: G87 (VHH)
VHH: B21 VHH with Q1E, S11L, G16D, S33N, M34L, A35G, Q82E, S85N, L100V, I101L
B23: G48 (VHH)
VHH: QVQLVESGGGLVQAGGSLRLSCAASGRTFSTLSMGWFRQAPGQGREFVGGINYDGSSVEYADSVKGRFTISRDNAKNMMYLQMNSLKPEDTAAYYCASSRGYNTGTNPLGYDVWGQGTQVTVSS
B24: G72 (VHH)
VHH: QVQLVESGGGLVQPGGSLRLSCATSGSTFSINGIGWYRQVPGIEREFVAGVSTDGKANYADSVAGRFTISINDGKNTAYLQMNSLKPEDTAVYYCNVDSTKGYYWGQGTQVTVSS
B25: G7 (VHH)
VHH: QVQLVESGGGLVQPGDSLRLSCAVSGQYVNMAAMGWFRQAPGKEREFVAGISWSDDTDIADSVKGRFTISRDHGKNTVDLQMNSLKPEDTGVYLCAGRFRRLAKDFGEYDYWGQGTQVTVSS

Changes are numbered by the printed parent chain.

The target in one test is T1, glutathione S-transferase (UniProt P08515 1-218 = GST).
T1 construct: Expressed in E. coli, purified on GSH resin; also called GST
T1 sequence (P08515 whole entry): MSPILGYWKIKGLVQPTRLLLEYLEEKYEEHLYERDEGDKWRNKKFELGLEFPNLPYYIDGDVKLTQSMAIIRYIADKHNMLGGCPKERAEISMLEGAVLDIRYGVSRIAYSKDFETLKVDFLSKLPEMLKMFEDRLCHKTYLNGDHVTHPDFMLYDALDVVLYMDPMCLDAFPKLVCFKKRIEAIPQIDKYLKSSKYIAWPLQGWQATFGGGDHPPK
The experiment in a line: indirect ELISA, GST coated.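 Note: nanobody dilution series starting at 10 µM binding plate-bound antigen, HRP anti-His or anti-T7 tag detection, TMB absorbance at 450 nm, logIC50 from four-parameter logistic fit.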
Procedure: Indirect ELISA was carried out to evaluate the camelid immune response of an antigen and to quantify the relative affinities of antigen-specific Nbs. An antigen was coated onto a 96-well ELISA plate (R&D system) at an amount of approximately 1-10 ng per well in a coating buffer (15 mM sodium carbonate, 35 mM sodium bicarbonate, pH 9.6) overnight at 4° C. The well surface was then blocked with a blocking buffer (DPBS, 0.05% Tween 20, 5% milk) at room temperature for 2 hours. To test an immune response, the immunized serum was serially 5-fold diluted in the blocking buffer. The diluted sera were incubated with the antigen coated wells at room temperature for 2 hours. HRP-conjugated secondary antibodies against llama Fc (Bethyl) were diluted 1:10,000 in the blocking buffer and incubated with each well for 1 hour at room temperature. […] Nbs of both specific binders for test and scramble negative controls were serially 10-fold diluted from 10 μM to 1 μM in the blocking buffer. HRP-conjugated secondary antibodies against His-tag (Genscript) or T7-tag (Thermo) were diluted 1:5,000 or 1:10,000 in the blocking buffer and incubated for 1 hour at room temperature. Three washes with 1x PBST (DPBS, 0.05% Tween 20) were carried out to remove nonspecific absorbance between incubations. After the final wash, the samples were further incubated under dark with freshly prepared w3,3′,5,5′-Tetramethylbenzidine (TMB) substrate for 10 mins at room temperature to develop the signals. After the STOP solution (R&D system), the plates were read at multiple wavelengths (450 nm and 550 nm) on a plate reader (Multiskan GO, Thermo Fisher). A false positive Nb binder was defined if any of the following two criteria was met: i) the ELISA signal can only be detected at a concentration of 10 μM and was under detected at 1 μM concentration. ii) At 1 μM concentration, a pronounced signal decrease (by more than 10-fold) was detected compared to the signal at 10 μM, while there were no signals can be detected at lower concentrations. The raw data was processed by Prism 7 (GraphPad) to fit into a 4PL curve and to calculate logIC50.
For the molecule B1, the binding result is “no binding (tested: Nb titrated from 10 µM)”.

B2: the “ELISA affinity (LogIC50 (oD450nm))” value turned out to be 6.74.

In the case of B3, the binding result was “no binding (tested: Nb titrated from 10 µM)”.

As to B4, the “ELISA affinity (LogIC50 (oD450nm))” value amounted to 9.81.

For B5, the “ELISA affinity (LogIC50 (oD450nm))” value was found to be 2.67.

In the case of B6, the binding result was “no binding (tested: Nb titrated from 10 µM)”.

With B7, the “ELISA affinity (LogIC50 (oD450nm))” value was 8.05.

As for B8, the “ELISA affinity (LogIC50 (oD450nm))” value is 3.86.

Regarding B9, the binding result was “no binding (tested: Nb titrated from 10 µM)”.

Consider B10, for which the binding result is “no binding (tested: Nb titrated from 10 µM)”.

In the case of B11, the binding result is on record as “no binding (tested: Nb titrated from 10 µM)”.

In the case of B12, the “ELISA affinity (LogIC50 (oD450nm))” value came out at 7.22.

Take B13: the binding result is “no binding (tested: Nb titrated from 10 µM)”.

With B14, the “ELISA affinity (LogIC50 (oD450nm))” value was 5.32.

With B15, the binding result is recorded as “no binding (tested: Nb titrated from 10 µM)”.

As to B16, the “ELISA affinity (LogIC50 (oD450nm))” value was 3.76.

With B17, the binding result was “no binding (tested: Nb titrated from 10 µM)”.

Regarding B18, the “ELISA affinity (LogIC50 (oD450nm))” value was 8.72.

As for B19, the binding result is “no binding (tested: Nb titrated from 10 µM)”.

On to B20, for which the binding result was “no binding (tested: Nb titrated from 10 µM)”.

Consider B21, for which the “ELISA affinity (LogIC50 (oD450nm))” value is 2.07.

As for B22, the binding result was “no binding (tested: Nb titrated from 10 µM)”.

B23: the “ELISA affinity (LogIC50 (oD450nm))” value was 1.6.

As to B24, the binding result is given as “no binding (tested: Nb titrated from 10 µM)”.

As for B25, the “ELISA affinity (LogIC50 (oD450nm))” value was found to be 1.89.

The next test deals with T1, glutathione S-transferase. The test can be described thus: SPR, GST immobilised.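 Note: nanobody analytes injected as dilution series over three orders of magnitude across antigen on a CM5 chip, kinetics fitted by 1:1 Langmuir model, optionally with mass transfer, duplicate runs.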
Procedure: Nb affinity measurement by SPR. Surface plasmon resonance (SPR, Biacore 3000 system, GE Healthcare) was used to measure Nb affinities. Antigen proteins immobilized on the activated CM5 sensor-chip by the following steps. Protein analytes were diluted to 10-30 μg/ml in 10 mM sodium acetate, pH 4.5, and were injected into the SPR system at 5 μl/min for 420 s. The surface of the sensor was then blocked by 1 M ethanolamine-HCl (pH 8.5). For each Nb analyte, a series of dilution (spanning three orders of magnitude) was injected in HBS-EP+ running buffer (GE-Healthcare) containing 2 mM DTT, at a flow rate of 20-30 μl/min for 120-180 s, followed by a dissociation time of 5-20 mins based on dissociation rate. Between each injection, the sensor chip surface was regenerated with the low pH buffer containing 10 mM glycine-HCl (pH 1.5-2.5), or high pH buffer of 20-40 mM NaOH (pH 12-13). The regeneration was performed with a flow rate of 40-50 μl/min for 30 s. The measurements were duplicated and only highly reproducible data was used for analysis. Binding sensorgrams for each Nb were processed and analyzed using BIAevaluation by fitting with 1:1 Langmuir model or 1:1 Langmuir model with mass transfer.
Turning to B2, the Kd came to 0.36 nM, the koff amounted to 0.00017 s⁻¹ and the kon was 474000 M⁻¹ s⁻¹.

The molecule B4 came in with a Kd of 0.0217 nM, a koff of 2.92e-05 s⁻¹ and a kon of 1.34e+06 M⁻¹ s⁻¹.

B5 yielded a Kd of 2000 nM and a koff of 0.00204 s⁻¹.

As for B7, binding was put at a Kd of 0.177 nM, the koff was 0.000353 s⁻¹ and the kon amounted to 2e+06 M⁻¹ s⁻¹.

In the case of B8, the Kd amounted to 32.4 nM, the koff was 0.0127 s⁻¹ and the kon was 391000 M⁻¹ s⁻¹.

For B12, the affinity, expressed as Kd, was 0.504 nM; the koff turned out to be 0.000561 s⁻¹; the kon was 1.11e+06 M⁻¹ s⁻¹.

Molecule B14 came in with a dissociation constant (Kd) of 17.6 nM, a koff of 0.000462 s⁻¹ and a kon of 26300 M⁻¹ s⁻¹.

Molecule B16 registered a Kd of 77 nM, a koff of 0.00107 s⁻¹ and an association rate constant (kon) of 13900 M⁻¹ s⁻¹.

In turn, B18 had a Kd of 0.761 nM, a koff of 0.000751 s⁻¹ and a kon of 987000 M⁻¹ s⁻¹.

The molecule B21 yielded a Kd of 40.5 nM, a koff of 0.00125 s⁻¹ and a kon of 30900 M⁻¹ s⁻¹.

Molecule B23 gave a Kd of 126 nM, a koff of 0.000753 s⁻¹ and a kon of 5930 M⁻¹ s⁻¹.

Molecule B25 returned a Kd of 268 nM, a koff of 0.000809 s⁻¹ and a kon of 3020 M⁻¹ s⁻¹.

Values taken from patent US20230176070A1 (published 2023).
